Test results from patent US20230190800A1.

Target: CD48 (UniProt P09326)
Test: cell-based or functional assay

Chain of UniProt P09326 (P09326 27-220 limits assumed): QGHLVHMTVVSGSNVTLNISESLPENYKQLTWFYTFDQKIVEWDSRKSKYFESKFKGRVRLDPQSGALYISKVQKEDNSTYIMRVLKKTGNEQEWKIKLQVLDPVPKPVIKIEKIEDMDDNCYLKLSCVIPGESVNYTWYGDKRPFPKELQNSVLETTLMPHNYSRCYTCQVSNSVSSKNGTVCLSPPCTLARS

## 2B4 (CD244) (from UniProt Q9BZW8 22-370) (receptor)
  NK cells expressing MIP-1α after incubation with S2 cells expressing B7H7 and CD48: 70%
  NK cells with at least 3 different responses after incubation with S2 cells expressing B7H7 and CD48: 10%
